Target: CD3 ζ chain (phosphorylated ITAMs) of the TCR complex (human) (UniProt P20963)
Test: cell-based or functional assay

Sequence of CD3 ζ chain (phosphorylated ITAMs) of the TCR complex (human) (P20963 22-164, one chain of several): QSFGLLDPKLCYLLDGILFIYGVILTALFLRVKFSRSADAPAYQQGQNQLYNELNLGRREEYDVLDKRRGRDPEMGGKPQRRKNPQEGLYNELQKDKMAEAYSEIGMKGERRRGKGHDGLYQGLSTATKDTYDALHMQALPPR

reduction in percentage responding cells (IFNγ), CDK4 TCR T cells co-cultured with 10 nM peptide loaded T2 cells, relative to vector control: 104 fold
reduction in percentage responding cells (IL-2), CDK4 TCR T cells co-cultured with 10 nM peptide loaded T2 cells, relative to vector control: 110 fold
reduction in percentage responding cells (TNFα), CDK4 TCR T cells co-cultured with 10 nM peptide loaded T2 cells, relative to vector control: 81 fold
reduction in percentage responding cells (cell surface LAMP1), CDK4 TCR T cells co-cultured with 10 nM peptide loaded T2 cells, relative to vector control: 40 fold
Substance: Zap70 2×SH2 domains-PD1 tail fusion protein (from UniProt P43403 1-264; Q15116 192-288)

Source: US20230151373A1, “CHIMERIC POLYPEPTIDE FOR REGULATING IMMUNE CELLS” (STICHTING HET NEDERLANDS KANKER INSTITUUT-ANTONI VAN …, priority 2019, published 2023)
